Reference: patent US20250136695A1 (PERSONGEN BIOTHERAPEUTICS SUZHOU, published 2025)

What was measured:
[1] = target: T1, PDL1 expressed on recombinant CHO cells (CHO-K1/PDL1; aAPC CHO-PDL1) (UniProt Q9NZQ7 19-290, limits assumed); test: cell-based or functional assay
[2] = target: T1, PDL1 expressed on recombinant CHO cells …; test: cell-based or functional assay; remark: listed apart in the source
[3] = target: T1, PDL1 expressed on recombinant CHO cells …; test: cell-based or functional assay; remark: listed apart in the source
PDL1-His = target: T2, PDL1-His (UniProt Q9NZQ7 19-238, limits assumed); test: BLI (OCTET R2), Fc-tagged antibody on protein A probes, PDL1-His as mobile phase
T2 construct: not shown: His tag
T2 sequence (Q9NZQ7 19-238 limits assumed): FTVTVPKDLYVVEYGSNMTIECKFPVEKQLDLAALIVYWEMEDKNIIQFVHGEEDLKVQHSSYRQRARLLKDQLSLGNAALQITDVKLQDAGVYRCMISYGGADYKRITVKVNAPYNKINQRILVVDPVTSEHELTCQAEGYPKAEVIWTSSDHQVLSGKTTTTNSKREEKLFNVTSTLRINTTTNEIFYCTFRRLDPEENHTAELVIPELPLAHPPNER

T1 sequence (Q9NZQ7 19-290 limits assumed): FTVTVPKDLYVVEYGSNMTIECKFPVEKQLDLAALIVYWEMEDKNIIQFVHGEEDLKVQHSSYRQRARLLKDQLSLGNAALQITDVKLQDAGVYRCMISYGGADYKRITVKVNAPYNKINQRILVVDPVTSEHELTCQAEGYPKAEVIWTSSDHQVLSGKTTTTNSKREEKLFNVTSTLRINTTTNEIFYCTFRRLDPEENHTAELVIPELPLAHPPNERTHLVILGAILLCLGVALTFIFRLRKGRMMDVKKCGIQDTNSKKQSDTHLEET

| Binder | EC50 of PD-1/PDL1 blocking against Nivolumab ([…] µg/mL), same reporter assay [1] [µg/mL] | EC50 of the PD1/PDL1 Block Assay (luciferase fold of induction, Jurkat-PD1-NFAT-Luc + aAPC CHO-PDL1); printed as 03-29-H9; the table gives no unit, the axis is in µg/mL [2] [µg/mL] | EC50 of the PD1/PDL1 Block Assay (luciferase fold of induction, Jurkat-PD-1-NFAT-Luc + aAPC CHO-PDL1) [3] [µg/mL] | Kd (PDL1-His) [nM] | koff (PDL1-His) [s⁻¹] | kon (PDL1-His) [M⁻¹ s⁻¹] | EC50 of the PD1/PDL1 Block Assay (luciferase fold of induction, Jurkat-PD1-NFAT-Luc + aAPC CHO-PDL1); printed as 03-17-A06; the table gives no unit, the axis is in µg/mL [2] [µg/mL] | EC50 of the PD1/PDL1 Block Assay (luciferase fold of induction, Jurkat-PD1-NFAT-Luc + aAPC CHO-PDL1); printed as 03-23-G3; the table gives no unit, the axis is in µg/mL [2] [µg/mL] |
| --- | --- | --- | --- | --- | --- | --- | --- | --- |
| 17-A06-G4S-23-G3 (Fc fusion, also called bivalent antibody 17-A06-G4S-23-G3; bivalent PDL1 antibody; not shown: Fc tag ('Fc-tagged')) MAQVKLEESGGGLVQAGGSLRLSCVASGRSFITYAVGWFRQAPGKEREFVASINWSGAMTYYTDSVNGRFAISRDNAKNTVYLQMNNLKLEDTAVYYCASTISAVTPTNGYQNWGQGTQVTVSSGGGGSMAAVQLVESGGGLVQAGGSLRLSCVASGRSFITYAVGWFRQAPGKEREFVASVNWSGAMTYYADAVNGRFTISRDNAKNTVYLQMNNLKLEDTAVYYCAATISAVTPTNGYQNWGQGTQVTVSS |  |  | 2.06 | 4.2 | 0.000649 | 155000 |  |  |
| 17-A06 (VHH fused to human IgG1 Fc) (Fc fusion, not shown: a dimerising Fc or GST) MAQVKLEESGGGLVQAGGSLRLSCVASGRSFITYAVGWFRQAPGKEREFVASINWSGAMTYYTDSVNGRFAISRDNAKNTVYLQMNNLKLEDTAVYYCASTISAVTPTNGYQNWGQGTQVTVSS | > 0.322 |  |  |  |  |  | 1.96 |  |
| 23-G3 (VHH fused to human IgG1 Fc) (Fc fusion, not shown: a dimerising Fc or GST) MAAVQLVESGGGLVQAGGSLRLSCVASGRSFITYAVGWFRQAPGKEREFVASVNWSGAMTYYADAVNGRFTISRDNAKNTVYLQMNNLKLEDTAVYYCAATISAVTPTNGYQNWGQGTQVTVSS | > 0.322 |  |  |  |  |  |  | 3.45 |
| 17-A06-G4S-29-H9 (Fc fusion, also called bivalent antibody 17-A06-G4S-29-H9; bivalent PDL1 antibody; not shown: Fc tag ('Fc-tagged')) MAQVKLEESGGGLVQAGGSLRLSCVASGRSFITYAVGWFRQAPGKEREFVASINWSGAMTYYTDSVNGRFAISRDNAKNTVYLQMNNLKLEDTAVYYCASTISAVTPTNGYQNWGQGTQVTVSSGGGGSRLQLVESGGGLVQAGGSLRLSCAASGFTFSTYAMSWYRGVPEKERELVAFISSDGGGTTYRDSVKGRFTISRDNGKNTVYLQMNSLKPEDTGVYYCARGLAQIWGQGTQVTVSS |  |  | 1.35 | 2.73 | 0.00048 | 176000 |  |  |

Continued, values first:

| EC50 of PD-1/PDL1 blocking against Nivolumab ([…] µg/mL), same reporter assay [1] [µg/mL] | EC50 of the PD1/PDL1 Block Assay (luciferase fold of induction, Jurkat-PD1-NFAT-Luc + aAPC CHO-PDL1); printed as 03-29-H9; the table gives no unit, the axis is in µg/mL [2] [µg/mL] | EC50 of the PD1/PDL1 Block Assay (luciferase fold of induction, Jurkat-PD-1-NFAT-Luc + aAPC CHO-PDL1) [3] [µg/mL] | Kd (PDL1-His) [nM] | koff (PDL1-His) [s⁻¹] | kon (PDL1-His) [M⁻¹ s⁻¹] | EC50 of the PD1/PDL1 Block Assay (luciferase fold of induction, Jurkat-PD1-NFAT-Luc + aAPC CHO-PDL1); printed as 03-17-A06; the table gives no unit, the axis is in µg/mL [2] [µg/mL] | EC50 of the PD1/PDL1 Block Assay (luciferase fold of induction, Jurkat-PD1-NFAT-Luc + aAPC CHO-PDL1); printed as 03-23-G3; the table gives no unit, the axis is in µg/mL [2] [µg/mL] | Binder |
| --- | --- | --- | --- | --- | --- | --- | --- | --- |
| > 0.322 | 1.44 |  |  |  |  |  |  | 29-H9 (VHH fused to human IgG1 Fc) (Fc fusion, not shown: a dimerising Fc or GST) RLQLVESGGGLVQAGGSLRLSCAASGFTFSTYAMSWYRGVPEKERELVAFISSDGGGTTYRDSVKGRFTISRDNGKNTVYLQMNSLKPEDTGVYYCARGLAQIWGQGTQVTVSS |
|  |  |  | 1.92 | 0.000455 | 238000 |  |  | 23-G3-G4S-29-H9 (Fc fusion, also called bivalent antibody 23-G3-G4S-29-H9; bivalent PDL1 antibody; not shown: Fc tag ('Fc-tagged')) MAAVQLVESGGGLVQAGGSLRLSCVASGRSFITYAVGWFRQAPGKEREFVASVNWSGAMTYYADAVNGRFTISRDNAKNTVYLQMNNLKLEDTAVYYCAATISAVTPTNGYQNWGQGTQVTVSSGGGGSRLQLVESGGGLVQAGGSLRLSCAASGFTFSTYAMSWYRGVPEKERELVAFISSDGGGTTYRDSVKGRFTISRDNGKNTVYLQMNSLKPEDTGVYYCARGLAQIWGQGTQVTVSS |
